Among the data in patent CN103588878A (JIANGSU T MAB BIOPHARMA, dated 2014) are Kd, koff and kon values, retold here.

Experiment [1] has as its target T1, 生物素化重组人白细胞介素1β (rhIL-1β) (human, UniProt P01584 117-269, biotinylated (site not stated)).
T1 construct: Antigen was biotinylated and desalted before the Fortebio Octet measurement; also called 抗原rhIL-1β
As to the kind of experiment: BLI (Fortebio Octet QK), summary range of the two runs. Background: Biolayer interferometry detects binding as a change in optical thickness at a sensor tip.

Experiment [2] addresses T1, 生物素化重组人白细胞介素1β (rhIL-1β). Nature of the experiment: BLI (Fortebio Octet QK), biotinylated rhIL-1β, antibody 40-1.25 nM, run 1.
The target in experiment [3] is T1, 生物素化重组人白细胞介素1β (rhIL-1β). As to the kind of experiment: BLI (Fortebio Octet QK), biotinylated rhIL-1β, antibody 40-1.25 nM, run 2.

Several values for one entry are separate records, joined by “and”; a condition that tells them apart may be missing. Equal values may be shown once.

B1: 人源化抗人白细胞介素1β(hIL-1β)单克隆抗体 (antibody, human IgG1, kappa, V domains shown)
VH: EVQLVESGGGLVQPGGSLRLSCAVSGFSLDVYTMTWVRQAPGKGLEWIGYIWSGGSASYASWAKGRFTISKDSSKNTVYLQINSLRAEDTAVYFCARVKMISNIETFDPWGPGTLVTVSS
VL: DIQMTQSPSSVSASVGDRVTIKCQASERIYSGLAWYQQKPGKRPKLLIYRASTLASGVPSRFSGSGSGTDFTLTISSLQPEDFATYYCQQGVSSSDIDNVFGGGTKVEIKR
notes: Full light and heavy chains; Expressed in CHO DG44 cells and purified; also called 人源化抗hIL-1β单克隆抗体; humanized form of rabbit clone Q26
With B1, the Kd in the experiment with 生物素化重组人白细胞介素1β (rhIL-1β) [1] was 0.01 nM and 0.025 nM. In the experiment with 生物素化重组人白细胞介素1β (rhIL-1β) [2], this molecule showed a Kd of 0.0211 nM, a koff of 3.02e-06 s⁻¹ and a kon of 143000 M⁻¹ s⁻¹. In the experiment with 生物素化重组人白细胞介素1β (rhIL-1β) [3], this molecule returned a Kd of 0.0128 nM, a koff of 2.16e-06 s⁻¹ and a kon of 166000 M⁻¹ s⁻¹.

As usually defined, the Kd is the concentration at which binding is half-saturated. Broadly, the koff is the rate constant with which the complex falls apart. The low end stands for slow dissociation, the high end for fast dissociation. The kon is the rate constant with which the complex forms. A high value points to fast association.
